The values below come from patent US12030916 (AUCTUS BIOLOGICS, dated 2024).

For this assay, the target named is T1, RPtag small tight peptide (Nd2,P5A,E18A) with a C-terminal GGC sequence (C-terminal Cys reacted with maleimide-activated plate (immobilised)).
T1 construct: also called RPtag small peptide; bait peptide
T1 peptide: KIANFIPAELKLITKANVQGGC
Kind of assay: capture ELISA, peptide immobilised on maleimide plate. As for the experimental part: White Pierce™ Maleimide Activated Plates were washed 4× with 200 μL 50 mM phosphate pH 7.4, 150 mM NaCl, and reacted with 100 μL of RPtag small peptide that binds with high affinity to RPtag large. Specifically, RPtag small tight peptide (Nd2,P5A,E18A; […]; SEQ ID NO:5) with a C-terminal GGC sequence ([…] (SEQ ID NO:5)+GGC) dissolved in 50 mM phosphate pH 7.4, 150 mM NaCl, 10 mM EDTA overnight at room temperature as bait. Plates were then washed 4× in 50 mM phosphate pH 7.4, 150 mM NaCl, and blocked for 1 hour at room temperature with 10 mM L-Cys in the same buffer, washed 4× as before, and blocked for 1 hour at room temperature with 50 mM phosphate pH 7.4, 150 mM NaCl, 1% BSA, 0.05% Tween20 (blocking buffer).
Plates were washed 4× as before, serum samples were diluted 1:100 in blocking buffer, and then serum was incubated with the baited plates for 2 hours at room temperature. […]
To test for intact N-termini, wells were then washed 4× as before, and incubated with a 1:10,000 dilution of HRP-conjugated mouse anti-FLAG antibody (M2 clone, 1 mg/mL stock) from Sigma-Aldrich for 1 hour at room temperature. Samples were then washed 4× as before, and assayed using SuperSignal™ ELISA Femto Substrate measured using a Molecular Devices SpectraMax i3 plate reader in luminescence mode. […]

B1: RPtag large-B12 construct (RPtag large with 3xFLAG tag, proline and Cys residue, B12-maleimide conjugated, 8xHis tag removed by TEV protease) (designed binder)
chain: KTIGLVISTLNNPFFVTLKNGAEEKAKELGYKIIVEDSQNDSSKELSNVEDLIQQKVDVLLINPVDSDAVVTAIKEANSKNIPVITIDRSANGGDVVSHIASDNVKGGEMAAEFIAKALKGKGNVVELEGIPGASAARDRGKGFDEAIAKYPDIKIVAKQAADFDRSKGLSVMENILQAQPKIDAVFAQNDEMALGAIKAIEAANRQGIIVVGFDGTEDALKAIKEGKMAATIAQQPALMGSLGVEMADKYLK
modifications: B12-maleimide covalently attached at the added Cys residue (47% labeling efficiency; the preparation is a mixture of free RPtag large and B12-RPtag large conjugate); position of the Cys not stated
notes: Construct expressed with N-terminal 8xHis tag and TEV site, both removed by TEV protease before use; In the assay it stood either in mouse serum after oral gavage or as a standard of known concentration; Formulated with 1 M D-ribose for dosing; also called B12-RPtag large conjugate; B12-RPtag conjugate; not shown: N-terminal leader left after TEV cleavage: 3xFLAG tag, a proline after it and a Cys …
Regarding B1, the binding result is recorded as “binds”.
